# Measured values: patent publication US11866760B2, “Microorganisms for the production of insect pheromones and related compounds” (Provivi, Inc., priority 2017, dated 2024)
# B1: H. zea desaturase: Helicoverpa zea Z11 desaturase (AAF81787), SEQ ID NO: 54 (protein, listed as Helicoverpa zea)
# chain: MAQSYQSTTVLSEEKELTLQHLVPQASPRKYQIVYPNLITFGYWHIAGLYGLYLCFTSAKWATILFSYILFVLAEIGITAGAHRLWAHKTYKAKLPLEILLMVFNSIAFQNSAIDWVRDHRLHHKYSDTDADPHNASRGFFYSHVGWLLVRKHPEVKKRGKELNMSDIYNNPVLRFQKKYAIPFIGAVCFALPTMIPVYFWGETWSNAWHITMLRYIMNLNVTFLVNSAAHIWGNKPYDAKILPAQNVAVSVATGGEGFHNYHHVFPWDYRAAELGNNSLNLTTKFIDLFAAIGWAYDLKTVSEDMIKQRIKRTGDGTDLWGHEQNCDEVWDVKDKSS
# Assays:
# S. cerevisiae ΔOLE1 = assay: ΔOLE1 growth complementation assay without UFA; type: cell-based, Saccharomyces cerevisiae
# Source text: S. cerevisiae ΔOLE1 (MATA OLE1::LEU2 ura3-52 his4) was used as an expression host. A synthetic expression cassette termed pOLE1 (FIG. 10, SEQ ID NO: 4) which comprises the OLE1 promoter region (SEQ ID NOs: 5 and 6), nucleotides encoding for 27 N-terminal amino acids of the OLE1 leader sequence (SEQ ID NO: 7), and a VPS13 terminator sequence (SEQ ID NO: 8) was created, and cloned into pESC-URA vector in between SacI and EcoRI sites. To test the functionality of the pOLE1 cassette, Dasher GFP synthon was inserted in between SpeI and NotI sites to create pOLE1-GFP plasmid. Competent ΔOLE1 was transformed with pOLE1-GFP, and plated on CM-Ura glucose agar plate (Teknova) containing UFA (20 mm CM-URA glucose agar plate was coated with 100 μL CM-Ura glucose medium containing 1% tergitol, and 3 μL palmitoleic acid). […] Validation of ΔOLE1 complementation was performed by restoring OLE1 activity. Specifically, native S. cerevisiae OLE1 synthon was inserted into pOLE1 cassette devoid of the leader sequence to create pOLE1-OLE1 plasmid. After transformation of ΔOLE1, and selection on CM-Ura glucose agar containing UFA, single colonies were patched onto YPD and CM-Ura glucose without UFA. After incubation at 30° C. for 5 days, growth was observed (FIG. 11A-FIG. 11E). As expected, Dasher GFP expression could not complement ΔOLE1 growth without UFA (FIG. 11A-FIG. 11E). DNA sequences which encode for desaturase variants were synthesized (to include nucleotide changes which remove restriction sites used for cloning purposes), and cloned into pOLE1 using SpeI-NotI sites (Genscript, SEQ ID NOs: 9-13). Complementation assay of ΔOLE1 with insect desaturases were performed in the same way as with OLE1 desaturase.
# palmitic acid [1] = assay: in vivo bioconversion assay of desaturases in C. tropicalis SPV053; type: cell-based, Candida tropicalis
# Procedure: Functional expression of the heterologous desaturases was characterized by a series of in vivo bioconversion experiments. C. tropicalis SPV053 derived stains expressing insect desaturases were cultured in rich (YPD) or defined (CM glucose) media supplemented with ethanol (for induction) and saturated acid substrates (palmitic acid, methyl palmitate, methyl myristate). Small scale (2 ml) cultures were cultivated for a total of 72 hours in 24 deep well plates with substrate added after the initial 24 hours.
# Positive isolates were re-patched onto YPD+300 μg/ml Zeocin and grown overnight and then stored at 4° C. Strains were inoculated from patch plates into 2 ml of YPD in 24 deep well plates (square well, pyramid bottom). Three positive clones were inoculated for each desaturase variant and the mCherry expressing control strain. Deep well plates were incubated at 30° C., 1000 rpm, and 80% humidity in the Infors HT Multitron Pro plate shaker for 24 hrs. After 24 hrs of incubation, cultures were split into equal 1 ml volumes to make two sets of identical plates. Both sets of plates were pelleted by centrifugation at 500×g. One set of plates was resuspended in 2 ml of YPD+0.3% (v/v) ethanol and the second set was resuspended in 2 ml of CM glucose+0.3% ethanol. Ethanol was added at this stage to induce recombinant enzyme expression from the ICL promoter. Cultures were incubated for another 24 hours under the same conditions before 300 mg/L palmitic acid was added to cultures from a 90 g/L stock solution in ethanol. The result was the addition of a fresh 0.3% ethanol in conjunction with the palmitic acid. A subset of strains was also cultured without palmitic acid addition. These cultures had 0.3% ethanol added instead. All cultures were incubated for an additional 24 hrs before a final addition of 0.3% ethanol. After another 24 hr period of incubation, 1.5 ml of each culture was harvested in 1.7 ml microcentrifuge tubes and pelleted. Supernatant was saved in fresh tubes and pellets were processed as described below. A subset of supernatant samples was also extracted to look for free acid in the extracellular medium.
# The mCherry control and confirmed positive variants were rescreened using both palmitic acid and methyl palmitate as substrates. The culturing was conducted as described above with equimolar (1.17 mM) amounts of substrate added from ethanol stock solutions (methyl palmitate 94 g/L stock, 313 mg/L final concentration). The same protocol was also repeated with the full panel of strains using an 84 g/L stock of methyl myristate (C14:0). The final concentration of substrate was again 1.17 mM.
# The in vivo bioconversion assay was scaled up for confirmation of (Z)-11-hexadecenoic acid synthesis. 2 ml YPD seed cultures of strains SPV0302, SPV0303, and SPV0304 (mCherry), […], SPV0305, and SPV0306 (A. transitella Z11 desaturase), and SPV0307, SPV0308, and SPV0309 (H. zea Z11 desaturase) were grown overnight at 30° C., 1000 rpm, 80% humidity in the Infors HT Multitron plate shaker. 200 μl of overnight culture from each of the three clonal isolates was pooled and inoculated into a single 125 ml baffled flask containing 20 ml YPD. The resulting three flasks were grown for 24 hrs at 30° C. and 250 rpm (Infors Flask shaker). Cultures were pelleted by centrifugation at 500×g and resuspended in 20 ml of YPD+0.3% (v/v) ethanol and returned to 125 ml baffled shake flasks. Cultures were incubated for an additional 24 hours before addition of 300 mg/L palmitic acid in a 90 g/L stock in ethanol (221 μl per flask). After 24 hours of incubation another 0.3% (v/v) ethanol (221 μl) was added to each flask for sustained induction. Flasks were incubated for an additional 24 hours before cells were harvested for FAME analysis and DMDS derivatization.
# Total lipid composition as well as the (Z)-11-hexadecenoic acid quantification was based on modified procedures by Moss et al. (1982) and Yousuf et al (2010). […]
# palmitic acid [2] = assay: in vivo bioconversion of palmitic acid into Z11-hexadecenoic acid in Y. lipolytica SPV140 and SPV300; type: cell-based, Yarrowia lipolytica; conditions: from ~500 mg/L palmitic acid substrate, 24 well plate assay
# Procedure: Functional activity was assessed by a modification of the protocol used for transmembrane desaturase expression in C. viswanathii SPV053 (See Example 6). Briefly, Y. lipolytica SPV140 and SPV300 derived stains expressing insect desaturases were cultured in rich (YPD) to generate biomass. Using the YPD generated biomass, small scale (2 ml) cultures were cultivated with palmitic acid for a total of 48 hours in 24 deep well plates (See Materials & Methods for detail).
# Positive isolates were re-patched onto YPD, grown overnight, and then stored at 4° C. Strains were inoculated from patch plates into 2 ml of YPD in 24 deep well plates (square well, pyramid bottom). Three positive clones were inoculated for each desaturase variant. Three isolates of pPV101 in SPV140 and the parent SPV300 were used as negative controls. Deep well plates were incubated at 28° C. and 250 rpm in the Infors Multitron refrigerated flask shaker for 24 hrs. […] Final cell densities were measured with the Tecan Infinite 200pro plate reader. […]
# Total lipid composition as well as the (Z)-11-hexadecenoic acid quantification was based on modified procedures by Moss et al. (1982) and Yousuf et al (2010). […] For the analysis of lipids and the quantification of fatty acids 50 μL of 0.2 M TMSH (trimethylsulfonium hydroxide in methanol) was added and the sample analyzed by GC-FID.
# [3] = SPV053, supplementation not stated
# [4] = SPV053, with palmitic acid supplementation
molecule,measurement,setting,value
B1,rescue of ΔOLE1 growth without UFA,S. cerevisiae ΔOLE1; minimal medium (CM-Ura glucose) agar plate,conferred growth without UFA
same,rescue of ΔOLE1 growth without UFA,S. cerevisiae ΔOLE1; rich medium (YPD) agar plate,conferred growth without UFA
same,(Z)-11-hexadecenoic acid titer,palmitic acid [1]; SPV053,~5.96 mg/L
same,activity on myristoyl-CoA,"palmitic acid [1]; SPV053, methyl myristate substrate",some activity on myristoyl-CoA
same,(Z)-11/(Z)-9 hexadecenoic acid ratio,"palmitic acid [1]; SPV053, palmitic acid supplemented",1.4
same,(Z)-9-hexadecenoic acid in C16-fatty acid composition,palmitic acid [1]; [3],~30.91%
same,(Z)-11-hexadecenoic acid in C16-fatty acid composition,palmitic acid [1]; [3],~19.1%
same,hexadecanoic acid in C16-fatty acid composition,palmitic acid [1]; [3],approximately 50.0%
same,(Z)-9-hexadecenoic acid in C16-fatty acid composition,palmitic acid [1]; [4],17.5%
same,(Z)-11-hexadecenoic acid in C16-fatty acid composition,palmitic acid [1]; [4],24.4%
same,hexadecanoic acid in C16-fatty acid composition,palmitic acid [1]; [4],58.1%
same,(Z)-11/(Z)-9 hexadecenoic acid ratio,"palmitic acid [1]; SPV053, without palmitic acid supplementation",0.6
same,Z11-hexadecenoic acid production,palmitic acid [2],~100 mg/L
